In patent publication US20150258192A1, “COMPOSITIONS AND METHODS FOR PREVENTING OR TREATING CHRONIC LUNG ALLOGRAFT DYSFUNCTION (CLAD) AND IDIOPATHIC PULMONARY FIBROSIS (IPF)” (priority 2014, published 2015):
No end group written: not given here.

How the values were obtained:
Experiment in all cases: Kinase Profiling Assay
Assay type in all cases: biochemical
Settings in all cases: peptide 100 μM
ARK5(h) = biological target: T1, ARK5(h) (Homo sapiens, UniProt O60285)
T1 sequence (O60285 1-661): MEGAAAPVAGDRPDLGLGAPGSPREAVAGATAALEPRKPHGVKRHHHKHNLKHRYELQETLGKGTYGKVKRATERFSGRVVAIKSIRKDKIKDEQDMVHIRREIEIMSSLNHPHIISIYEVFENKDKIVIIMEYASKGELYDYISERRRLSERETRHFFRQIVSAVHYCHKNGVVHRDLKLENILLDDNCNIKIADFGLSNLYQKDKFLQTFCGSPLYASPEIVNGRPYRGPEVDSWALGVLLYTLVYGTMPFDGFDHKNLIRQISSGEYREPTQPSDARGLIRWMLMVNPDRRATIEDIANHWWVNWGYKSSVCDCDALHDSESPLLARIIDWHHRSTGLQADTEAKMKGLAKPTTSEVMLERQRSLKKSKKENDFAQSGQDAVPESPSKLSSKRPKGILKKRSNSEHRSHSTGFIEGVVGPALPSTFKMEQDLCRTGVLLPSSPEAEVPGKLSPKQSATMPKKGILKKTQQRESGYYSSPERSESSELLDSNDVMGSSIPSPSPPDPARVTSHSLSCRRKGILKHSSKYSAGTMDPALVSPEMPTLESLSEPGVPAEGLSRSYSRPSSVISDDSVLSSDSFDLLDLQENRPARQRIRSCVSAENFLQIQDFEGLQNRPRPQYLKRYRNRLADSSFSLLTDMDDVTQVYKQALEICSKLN
How it was run: (§1)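 Scintillation counting quantifies radiolabeled, positively charged substrate retained on a negatively charged filter after kinase reaction with labeled ATP; inhibitor peptide present.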

Lck(h) activated = biological target: T2, Lck(h) activated (Homo sapiens, UniProt P06239)
T2 construct: purchased Millipore
How it was run: as §1

MARK1(h) = biological target: T3, MARK1(h) (Homo sapiens, UniProt Q9P0L2)
T3 construct: purchased Millipore
How it was run: as §1

MRCKα(h) = biological target: T4, MRCKα(h) (Homo sapiens, UniProt Q5VT25)
T4 construct: purchased Millipore
How it was run: as §1

PDK1(h) = biological target: T5, PDK1(h) (Homo sapiens, UniProt O15530)
T5 sequence (O15530 1-556): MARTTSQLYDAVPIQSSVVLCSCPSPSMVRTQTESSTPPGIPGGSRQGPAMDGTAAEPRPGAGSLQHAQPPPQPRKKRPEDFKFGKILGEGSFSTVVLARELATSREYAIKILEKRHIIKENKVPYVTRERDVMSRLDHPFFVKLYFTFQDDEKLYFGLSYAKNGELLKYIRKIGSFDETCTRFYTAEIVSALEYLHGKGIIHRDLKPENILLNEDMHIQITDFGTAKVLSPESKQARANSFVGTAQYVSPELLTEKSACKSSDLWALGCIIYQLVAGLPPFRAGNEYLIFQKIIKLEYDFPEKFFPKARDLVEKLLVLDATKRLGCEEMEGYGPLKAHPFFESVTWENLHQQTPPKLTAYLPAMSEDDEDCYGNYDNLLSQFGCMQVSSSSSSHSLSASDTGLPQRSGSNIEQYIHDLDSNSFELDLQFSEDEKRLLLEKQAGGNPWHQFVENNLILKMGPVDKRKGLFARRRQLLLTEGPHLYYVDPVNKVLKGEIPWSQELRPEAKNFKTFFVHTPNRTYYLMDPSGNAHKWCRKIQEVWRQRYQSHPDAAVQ
How it was run: as §1

PKCμ(h) = biological target: T6, PKCμ(h) (Homo sapiens, UniProt Q15139)
T6 sequence (Q15139 1-912): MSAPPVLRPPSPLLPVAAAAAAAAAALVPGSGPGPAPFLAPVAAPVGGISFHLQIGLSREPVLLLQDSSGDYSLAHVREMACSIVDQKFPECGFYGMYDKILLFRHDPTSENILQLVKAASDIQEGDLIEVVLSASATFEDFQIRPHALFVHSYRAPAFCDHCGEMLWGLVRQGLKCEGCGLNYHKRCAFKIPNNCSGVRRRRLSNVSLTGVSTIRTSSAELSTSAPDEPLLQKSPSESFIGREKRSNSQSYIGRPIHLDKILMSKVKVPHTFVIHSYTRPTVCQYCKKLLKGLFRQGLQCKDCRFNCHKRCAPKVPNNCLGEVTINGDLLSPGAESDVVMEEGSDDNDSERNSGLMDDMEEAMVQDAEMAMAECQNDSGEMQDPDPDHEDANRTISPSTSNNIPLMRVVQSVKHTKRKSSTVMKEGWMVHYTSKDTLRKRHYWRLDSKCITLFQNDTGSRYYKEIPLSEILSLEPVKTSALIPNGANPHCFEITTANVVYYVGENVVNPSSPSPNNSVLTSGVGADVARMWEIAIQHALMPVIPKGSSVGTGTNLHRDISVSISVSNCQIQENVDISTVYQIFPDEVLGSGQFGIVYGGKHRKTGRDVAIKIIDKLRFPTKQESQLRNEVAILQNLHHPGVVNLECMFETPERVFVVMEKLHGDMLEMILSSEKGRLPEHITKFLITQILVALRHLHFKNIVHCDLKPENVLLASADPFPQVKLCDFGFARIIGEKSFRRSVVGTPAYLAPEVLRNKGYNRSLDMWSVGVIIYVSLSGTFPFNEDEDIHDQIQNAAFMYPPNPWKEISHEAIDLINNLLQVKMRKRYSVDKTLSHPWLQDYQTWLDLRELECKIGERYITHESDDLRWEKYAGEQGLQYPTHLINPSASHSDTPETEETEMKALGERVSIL
How it was run: as §1

cKit(h) = cKit(h) (Homo sapiens, UniProt P10721)
How it was run: as §1

T3 sequence (Q9P0L2 whole entry): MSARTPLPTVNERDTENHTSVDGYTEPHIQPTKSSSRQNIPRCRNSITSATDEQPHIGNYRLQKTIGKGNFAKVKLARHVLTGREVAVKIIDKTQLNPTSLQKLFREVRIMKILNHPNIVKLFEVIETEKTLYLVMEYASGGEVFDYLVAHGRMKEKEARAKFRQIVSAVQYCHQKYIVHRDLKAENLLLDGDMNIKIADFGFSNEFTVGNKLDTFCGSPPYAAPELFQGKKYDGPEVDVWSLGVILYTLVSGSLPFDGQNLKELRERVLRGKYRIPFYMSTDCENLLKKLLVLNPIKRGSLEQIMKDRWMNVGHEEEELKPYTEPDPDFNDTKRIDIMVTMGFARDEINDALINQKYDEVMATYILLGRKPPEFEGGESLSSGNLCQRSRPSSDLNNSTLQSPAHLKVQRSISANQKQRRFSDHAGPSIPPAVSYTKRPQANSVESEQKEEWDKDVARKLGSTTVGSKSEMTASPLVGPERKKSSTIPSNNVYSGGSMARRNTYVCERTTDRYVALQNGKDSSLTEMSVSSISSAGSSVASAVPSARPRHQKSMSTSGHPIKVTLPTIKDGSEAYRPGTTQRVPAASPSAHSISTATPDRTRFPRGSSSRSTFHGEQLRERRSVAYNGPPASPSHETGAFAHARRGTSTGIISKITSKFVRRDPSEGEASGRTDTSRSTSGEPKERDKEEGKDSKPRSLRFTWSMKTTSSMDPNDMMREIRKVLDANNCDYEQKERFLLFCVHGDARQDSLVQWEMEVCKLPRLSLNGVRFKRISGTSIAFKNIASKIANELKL
T4 sequence (Q5VT25 whole entry): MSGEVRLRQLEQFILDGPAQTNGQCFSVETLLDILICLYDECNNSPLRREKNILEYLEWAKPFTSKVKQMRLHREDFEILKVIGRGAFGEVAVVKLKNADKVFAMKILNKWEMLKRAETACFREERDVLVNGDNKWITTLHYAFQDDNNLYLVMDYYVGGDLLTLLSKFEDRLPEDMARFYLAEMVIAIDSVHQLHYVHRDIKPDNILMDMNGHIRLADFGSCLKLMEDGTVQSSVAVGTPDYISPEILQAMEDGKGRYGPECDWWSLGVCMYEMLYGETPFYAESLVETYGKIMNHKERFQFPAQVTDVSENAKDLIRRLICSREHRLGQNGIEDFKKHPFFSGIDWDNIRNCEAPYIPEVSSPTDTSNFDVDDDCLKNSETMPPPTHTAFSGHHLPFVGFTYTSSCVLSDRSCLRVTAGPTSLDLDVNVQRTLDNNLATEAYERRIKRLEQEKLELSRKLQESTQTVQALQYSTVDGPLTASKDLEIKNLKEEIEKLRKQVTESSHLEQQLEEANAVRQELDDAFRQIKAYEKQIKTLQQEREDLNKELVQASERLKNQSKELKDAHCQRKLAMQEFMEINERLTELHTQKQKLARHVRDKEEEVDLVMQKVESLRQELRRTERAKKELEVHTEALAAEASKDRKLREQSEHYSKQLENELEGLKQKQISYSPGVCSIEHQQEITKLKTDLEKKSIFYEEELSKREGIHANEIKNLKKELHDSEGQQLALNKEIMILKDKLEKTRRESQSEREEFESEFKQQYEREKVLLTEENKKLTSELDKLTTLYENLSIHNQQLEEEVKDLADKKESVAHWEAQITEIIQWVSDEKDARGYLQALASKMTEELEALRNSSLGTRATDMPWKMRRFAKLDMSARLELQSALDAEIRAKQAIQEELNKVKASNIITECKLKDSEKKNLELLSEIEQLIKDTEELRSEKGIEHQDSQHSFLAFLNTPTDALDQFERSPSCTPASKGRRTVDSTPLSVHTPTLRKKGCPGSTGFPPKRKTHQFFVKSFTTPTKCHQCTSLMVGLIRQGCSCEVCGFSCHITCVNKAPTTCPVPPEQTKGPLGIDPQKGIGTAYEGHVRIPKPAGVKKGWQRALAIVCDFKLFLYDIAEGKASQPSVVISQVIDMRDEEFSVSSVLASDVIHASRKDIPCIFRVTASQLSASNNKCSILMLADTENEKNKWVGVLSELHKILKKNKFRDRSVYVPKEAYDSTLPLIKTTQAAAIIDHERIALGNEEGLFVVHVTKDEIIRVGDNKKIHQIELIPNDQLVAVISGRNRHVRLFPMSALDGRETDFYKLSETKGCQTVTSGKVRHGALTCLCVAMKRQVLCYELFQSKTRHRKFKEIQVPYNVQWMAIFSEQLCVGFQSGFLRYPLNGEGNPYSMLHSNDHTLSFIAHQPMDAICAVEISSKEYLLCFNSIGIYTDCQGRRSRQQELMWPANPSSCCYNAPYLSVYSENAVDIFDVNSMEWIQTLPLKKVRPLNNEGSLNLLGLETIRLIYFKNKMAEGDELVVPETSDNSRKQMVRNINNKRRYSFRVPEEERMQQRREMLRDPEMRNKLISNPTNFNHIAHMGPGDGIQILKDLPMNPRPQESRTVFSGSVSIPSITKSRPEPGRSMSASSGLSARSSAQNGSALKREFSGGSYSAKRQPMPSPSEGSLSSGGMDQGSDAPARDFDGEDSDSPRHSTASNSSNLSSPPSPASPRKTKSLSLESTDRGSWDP
T2 sequence (P06239 whole entry): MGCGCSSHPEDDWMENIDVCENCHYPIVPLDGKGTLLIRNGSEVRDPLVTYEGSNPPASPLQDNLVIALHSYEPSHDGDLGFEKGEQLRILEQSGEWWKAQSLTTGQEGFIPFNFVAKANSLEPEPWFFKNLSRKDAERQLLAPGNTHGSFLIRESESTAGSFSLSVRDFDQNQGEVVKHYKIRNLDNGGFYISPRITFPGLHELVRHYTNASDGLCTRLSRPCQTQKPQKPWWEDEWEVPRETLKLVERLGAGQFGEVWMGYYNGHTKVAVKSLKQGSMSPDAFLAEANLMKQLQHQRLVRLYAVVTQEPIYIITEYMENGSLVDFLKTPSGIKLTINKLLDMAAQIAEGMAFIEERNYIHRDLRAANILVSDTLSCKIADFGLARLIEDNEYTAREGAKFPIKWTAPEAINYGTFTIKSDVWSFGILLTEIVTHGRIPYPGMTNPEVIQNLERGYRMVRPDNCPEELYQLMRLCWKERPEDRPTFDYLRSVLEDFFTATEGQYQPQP

| Sequence | % activity (ARK5(h)) [%] | % activity (Lck(h) activated) [%] | % activity (MARK1(h)) [%] | % activity (MRCKα(h)) [%] | % activity (PDK1(h)) [%] | % activity (PKCμ(h)) [%] | % activity (cKit(h)) [%] |
| --- | --- | --- | --- | --- | --- | --- | --- |
| KAFAKLAARLYRKALARQLGVAA [MMI-0400] | 69 | 216 | 120 | 97 | 159 | 14 | 43 |
| FAKLAARLYRKALARQLGVAA [MMI-0300] | 78 | 243 | 132 |  | 135 | 22 | 53 |
| YARAAARQARAKALARQLGVAA [MMI-0100] | 108 |  |  | 98 |  | 79 | 95 |
| HRRIKAWLKKIKALARQLGVAA (Mammal) [MMI-0500] | 20 | 76 | 110 | 5 | 178 | 10 | 45 |
| YARAAARQARAKALNRQLGVA (Mammal) [MMI-0200] | 93 | 90 |  |  | 143 | 73 | 110 |
